Measured values reported in patent US20080058270A1 (published 2008).

Target: T1, lecithin:cholesterol acyltransferase (LCAT), purified from human plasma (human, UniProt P04180 25-440)
T1 sequence (looked up): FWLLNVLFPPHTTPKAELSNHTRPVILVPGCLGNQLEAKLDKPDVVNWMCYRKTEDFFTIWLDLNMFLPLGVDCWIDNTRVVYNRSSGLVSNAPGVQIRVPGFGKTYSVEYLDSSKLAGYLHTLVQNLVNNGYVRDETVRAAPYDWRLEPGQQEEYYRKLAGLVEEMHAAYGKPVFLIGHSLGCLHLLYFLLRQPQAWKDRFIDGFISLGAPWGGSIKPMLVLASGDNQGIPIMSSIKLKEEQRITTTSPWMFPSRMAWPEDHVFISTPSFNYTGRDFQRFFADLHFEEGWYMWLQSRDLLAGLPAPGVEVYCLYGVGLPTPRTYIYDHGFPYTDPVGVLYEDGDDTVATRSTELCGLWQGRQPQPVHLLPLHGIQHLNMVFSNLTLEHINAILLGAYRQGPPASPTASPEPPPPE
Assay: cell-based or functional assay

LDDLLQKWAEAFNQLLKK [peptide 237]
ACTIVITY (%) LCAT: 111%
